Measured values reported in PMC9284671 (Structure (London, England : 1993), 2022).

Columns and labels:
[1] = target: T1, SARS-CoV-2 spike S2 subunit (SARS-CoV-2 (WA-1 / Wuhan-Hu-1), UniProt P0DTC2); assay: far-Western, overlay or dot blot
[2] = target: T2, SARS-CoV spike peptide #154 (PELDSFKEELDKYFKNH) (SARS-CoV); assay: far-Western, overlay or dot blot
T2 chain: PELDSFKEELDKYFKNH

[3] = target: hCoV-OC43 S2P (pre-fusion-stabilized soluble spike) (hCoV-OC43 (AAT84354.1, cross-referenced …, UniProt P36334, stabilised)); assay: ELISA
[4] = target: hCoV-HKU1 S2P (pre-fusion-stabilized soluble spike) (hCoV-HKU1 isolate N1, UniProt Q5MQD0, stabilised); assay: ELISA
[5] = target: SARS-CoV-2 S-dTM (soluble spike protein residues 1-1,206 of wild-type WA-1 strain) (SARS-CoV-2 WA-1, UniProt P0DTC2); assay: ELISA
[6] = target: hCoV-OC43 full-length spike (hCoV-OC43 (AAT84354.1, cross-referenced …, UniProt P36334)); assay: flow cytometry on cells
[7] = target: hCoV-HKU1 full-length spike (hCoV-HKU1 isolate N1, UniProt Q5MQD0); assay: flow cytometry on cells
[8] = target: MERS-CoV full-length spike (EMC) (MERS-CoV EMC/2012 (GenBank AFS88936), UniProt K0BRG7); assay: flow cytometry on cells
[9] = target: SARS-CoV-2 full-length spike (WA-1) (SARS-CoV-2 WA-1 (GenBank QHD43416.1), UniProt P0DTC2); assay: flow cytometry on cells
[10] = target: SARS-CoV full-length spike (Urbani) (SARS-CoV Urbani, UniProt P59594); assay: flow cytometry on cells
[11] = target: T1, SARS-CoV-2 spike S2 subunit; assay: negative-stain electron microscopy

Measured: binding result

B1: WS6 (monoclonal antibody, IgG) (antibody, V domains shown)
VH: EVQFQQSGTVLARPGASVKMSCKASGYTFTNYWIHWVKQRPGQGLEYIGGTYPGNGDTTYNQKFKGKAKVTAVTPTSTAYMDLSSLTNEDSAVYYCTRTGSYFDYWGQGTTLTVSS
VL: QIVLTQSPAIMSASPGEKVTISCSATSSVSYIYWYQQRPGSSPKPWIYRTSNLASGVPVRFSGSGSGTSYSLTISNMEAEDAATYYCQQYQSYPPTFGAGTKLELK
not listed: [11]
binds: all other assays above

B2: WS6 Fab (antigen-binding fragment of WS6) (Fab, V domains shown)
VH: EVQFQQSGTVLARPGASVKMSCKASGYTFTNYWIHWVKQRPGQGLEYIGGTYPGNGDTTYNQKFKGKAKVTAVTPTSTAYMDLSSLTNEDSAVYYCTRTGSYFDYWGQGTTLTVSS
VL: QIVLTQSPAIMSASPGEKVTISCSATSSVSYIYWYQQRPGSSPKPWIYRTSNLASGVPVRFSGSGSGTSYSLTISNMEAEDAATYYCQQYQSYPPTFGAGTKLELK
binds: [11]
